Laboratory results from the supplement of paper PMC10567573.
± gives the standard deviation.

Test: protein stability index of a GFP-peptide fusion (GPS, HEK-293T) (PSI 1-6); higher = more stable
Settings: c terminus: a fixed tail appended
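Also: 24-mer peptide tiles fused after GFP, lentivirally expressed, FACS-sorted into six equal bins by GFP/DsRed ratio, decoded by Illumina sequencing, PSI is the read-weighted mean bin number.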

Sequence	protein stability index (treatment: DMSO)	protein stability index (treatment: MLN4924 1 uM, 8 h)
EDEDKSEPEQTGADAAEDEEVDVT [RBBP5]	5.66 ± 0.28	5.73 ± 0.31
EDSDVEMVEDDSRKEMTAACTPRR [MLH1]	5.54 ± 0.3	5.67 ± 0.18
EDVRIFFYQSPYDSEQVPQALRRL [NCF4]	2.79 ± 0.31	2.98 ± 0.4
EDWLSHALSRKKSQGLAREQHAGT [FBF1]	3.9 ± 0.23	4.04 ± 0.14
EEDKRRKGEEVTPISAIRHEGKTD [EPB41L3]	5.59 ± 0.23	5.66 ± 0.13
EEIRGGGLLKYCSLLVHGFKPACM [TENT5D]	3.11 ± 0.5	2.35 ± 0.67
EELAPVGTAHIPPTMHLESPALQV [ZNF449]	4.18 ± 0.27	4.33 ± 0.091
EEMWTFRGKIHAFRGQILGFWEEE [CCDC70]	2.15 ± 0.41	2.35 ± 0.26
EERVRVLQGVRLSENVVNRMKEPS [CHCHD6]	4.6 ± 0.51	4.64 ± 0.19
EFISSTKRPYAKELETVDFKDKLE [SERPINB5]	3.98 ± 0.24	4.32 ± 0.13
EFPEARIFEETLNILIYETPRGPD [KCTD13]	2.48 ± 0.15	2.5 ± 0.44
EGAQRDRFPGRKQPGVHEEPVLKK [C22orf31]	5.15 ± 0.3	5.17 ± 0.31
EGTNGQLDYSFGDHTSEAVRNLFG [PCDHGC5]	3.89 ± 0.13	3.9 ± 0.32
EGVISVSEDRTVRVWLKRDSGQYW [WDFY2]	2.17 ± 0.2	2.3 ± 0.12
EHQYRLPPMGKAFQELAGKELCAM [SPDEF]	3.19 ± 0.26	3.23 ± 0.098
EIANEDRKHALERFEQEAVAVDSN [CCDC89]	5.01 ± 0.42	5.31 ± 0.16
EIELQAQHNLRYSLENTLTESEAR [KRT33B]	4.7 ± 0.2	4.48 ± 0.18
EIIRKQVSATKAEAEKDGVKVPTT [UBE2R2]	4.84 ± 0.37	4.7 ± 0.25
EILSESVVPDVRSVVTTARMQVLK [SMARCE1]	2.87 ± 0.56	2.54 ± 0.38
EINPPPHTMEEEEDDDWGEDTTEE [EIF5]	5.52 ± 0.28	5.34 ± 0.48
EKKGLHEKALQVLVDQSKKANSPL [VPS39]	4.65 ± 0.21	4.67 ± 0.18
EKLLERQGQAKTPDSMFLAMLAVV [CDK11A]	1.95 ± 0.21	2.2 ± 0.55

Sequence	protein stability index (treatment: DMSO)	protein stability index (treatment: MLN4924 1 uM, 8 h)
EKMALDPYTELRKQPLRKYVTPSD [EFHC1]	4.03 ± 0.29	3.95 ± 0.064
ELDEPQHEMVAHRHRQEVLCKEMV [ZSCAN9]	4.72 ± 0.24	4.76 ± 0.26
ELKTKLTKLEAEIVTLRHVLAAKE [TPD52L3]	3.44 ± 0.27	3.64 ± 0.23
ELNGHTQKITAIITFPSLESCEEK [WDR41]	3.1 ± 0.29	3.42 ± 0.42
ELPNIKREISETEAKALLKERQKK [TFE3]	3.26 ± 0.7	4.19 ± 0.57
ELSRIVLMRHGMEKIWRPNRVFSL [RAB40C]	2.37 ± 0.37	2.63 ± 0.41
EMFTKPVVILPCQHNLCRKCASDI [TRIM55]	2.96 ± 0.3	2.83 ± 0.47
ENKDHSLERGRASLIFSLKNEVGG [TPH1]	4.09 ± 0.18	3.82 ± 0.38
EPDAADGPYDPNSVRISFAKGWGP [SMAD6]	4.17 ± 0.13	4.19 ± 0.17
EPEEEILGSDDEEQEDPADYCKGG [SRPK2]	5.54 ± 0.29	5.55 ± 0.24
EPEMAVFLQNAKTLLKKISEASKA [TRIM55]	2.46 ± 0.3	2.25 ± 0.22
EPLYNWQATKASLKERFAFLFNSE [BTBD1]	2.97 ± 0.22	2.78 ± 0.37
EPTEVEEVVPALEPTETLLSEKEI [BCL2L13]	5.5 ± 0.35	5.71 ± 0.12
EPYARLPPHKHVARPTEVLAGTQL [TRIB3]	4.05 ± 0.1	3.88 ± 0.28
EQCLPSLENSKYCRFNQDPEAVDE [ATE1]	5.16 ± 0.45	5.16 ± 0.26
EQLMYIKEDLIIPHHHSFYDFIVT [FAM50A]	2.42 ± 0.21	2.27 ± 0.21
EQTAPGDSTGYMEVSLDSLDLRVK [EHMT1]	4.59 ± 0.32	4.87 ± 0.2
ERCNQLLRALKLVITALKCHKYDR [ZER1]	2.56 ± 0.47	2.71 ± 0.47
ERDRISTRRSSYEDSSLPSINALL [HNF4A]	3.79 ± 0.097	3.84 ± 0.49
ERTGFSIRPVAGYLSPRDFLSGLA [TPH1]	2.25 ± 0.048	2.36 ± 0.35
ESQVKSLCEKAKEILTKESNVQEV [PPP2CA]	5.45 ± 0.11	5.18 ± 0.18
ESRALSTSSNLGSQYQCENGVSGP [TBX5]	4.95 ± 0.25	5.06 ± 0.21

Sequence	protein stability index (treatment: DMSO)	protein stability index (treatment: MLN4924 1 uM, 8 h)
ESRQTEVVIRDIDERAMELLIDFA [KLHL20]	2.9 ± 0.095	2.96 ± 0.24
ESSMEDCLAHLGEKVSQELKEPLH [BCL2L13]	4.97 ± 0.2	5.09 ± 0.32
ETIKDLMRQFLRGLDFLHANCIVH [CDK4]	3.06 ± 0.64	3.23 ± 0.56
ETLITTIDSSSSWWTNWVIPAISA [CYB5A]	2.47 ± 0.63	2.48 ± 0.49
ETLSGHGPLAQPLTLQVLVAGNPQ [ADAMTS4]	3 ± 0.43	2.98 ± 0.31
ETQEQDVDLVQKYLEKYYNLKNDG [MMP1]	3.99 ± 0.38	3.92 ± 0.3
EVFEGREDSIFGDPKKLLTQYFVQ [MAGEA6]	2.34 ± 0.18	2.46 ± 0.18
EVKFPNASDMFRRLRDAGFRVTLW [MYORG]	2.97 ± 0.74	2.17 ± 0.31
EVQHLREEKSKQFLDLMETIDKQR [LRRC45]	4.51 ± 0.32	4.49 ± 0.25
EVQKLVESGVDVNSQNEVNGWTCL [ANKRD40]	3.43 ± 0.53	3.33 ± 0.16
EVRDRMLLKITIPNAFIGSDVVDW [DVL3]	2.17 ± 0.43	2.46 ± 0.15
FAVFPSLNEEQTLQEVPTGLDSIS [ETS2]	3.81 ± 0.32	3.79 ± 0.39
FDQTVFQEVFEPPHYELCTLRGTG [NETO1]	2.96 ± 0.12	2.97 ± 0.3
FESGSVSFLNVTKSSLIWSYPAGS [TRIM43]	2.13 ± 0.41	2.11 ± 0.13
FFIGFTALVIMWQKHYVYGPLPQS [COX4I1]	3.22 ± 0.34	3.36 ± 0.57
FFRKLLDCCQVSAPNRFFQKLNVF [NLN]	2.02 ± 0.073	2.47 ± 0.74
FGEDYYGPSRSRHRRRSRERGPYR [CLK3]	3.27 ± 0.78	4.29 ± 0.89
FGEVRPYFYLGGARGAGPPEPLRI [TRIM35]	2.63 ± 0.91	2.76 ± 0.18
FGSGSNGCLGHGSLTDISQPTIVE [NEK8]	3.5 ± 0.34	3.91 ± 0.2
FKAKEAAALGSRGSCSTEVEKETQ [ATP6V1G1]	2.94 ± 0.44	3.26 ± 0.27
FKCRNKTSGQVVAVKKFVESEDDP [CDKL4]	4.7 ± 0.089	4.94 ± 0.28
